Test results taken from IntAct's records for PubMed 16893902.

B1: Protein sprouty homolog 1 (Homo sapiens), O43609 (parent)
chain: MDPQNQHGSGSSLVVIQQPSLDSRQRLDYEREIQPTAILSLDQIKAIRGSNEYTEGPSVVKRPAPRTAPRQEKHERTHEIIPINVNNNYEHRHTSHLGHAVLPSNARGPILSRSTSTGSAASSGSNSSASSEQGLLGRSPPTRPVPGHRSERAIRTQPKQLIVDDLKGSLKEDLTQHKFICEQCGKCKCGECTAPRTLPSCLACNRQCLCSAESMVEYGTCMCLVKGIFYHCSNDDEGDSYSDNPCSCSQSHCCSRYLCMGAMSLFLPCLLCYPPAKGCLKLCRRCYDWIHRPGCRCKNSNTVYCKLESCPSRGQGKPS
B2: Protein sprouty homolog 2 (Homo sapiens), O43597 (parent)
chain: MEARAQSGNGSQPLLQTPRDGGRQRGEPDPRDALTQQVHVLSLDQIRAIRNTNEYTEGPTVVPRPGLKPAPRPSTQHKHERLHGLPEHRQPPRLQHSQVHSSARAPLSRSISTVSSGSRSSTRTSTSSSSSEQRLLGSSFSSGPVADGIIRVQPKSELKPGELKPLSKEDLGLHAYRCEDCGKCKCKECTYPRPLPSDWICDKQCLCSAQNVIDYGTCVCCVKGLFYHCSNDDEDNCADNPCSCSQSHCCTRWSAMGVMSLFLPCLWCYLPAKGCLKLCQGCYDRVNRPGCRCKNSNTVCCKVPTVPPRNFEKPT

Key:
cbl_human CBL, P22681 [1] = variants of: B1; conditions: with cbl_human CBL
grb2_human GRB2, P62993 [2] = variants of: B1; conditions: with grb2_human GRB2, P62993
Target sequence in this assay (P62993 whole entry, looked up): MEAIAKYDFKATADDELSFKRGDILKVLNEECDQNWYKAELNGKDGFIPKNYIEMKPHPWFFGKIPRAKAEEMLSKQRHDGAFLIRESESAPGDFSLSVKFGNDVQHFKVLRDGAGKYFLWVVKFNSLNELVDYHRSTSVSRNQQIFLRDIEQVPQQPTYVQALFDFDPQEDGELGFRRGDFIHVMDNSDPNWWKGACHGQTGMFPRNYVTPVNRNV

cbl_human CBL, P22681 [3] = variants of: B2; conditions: with cbl_human CBL; remark: listed apart in the source
grb2_human GRB2, P62993 [4] = variants of: B2; conditions: with grb2_human GRB2, P62993; remark: listed apart in the source
Target sequence in this assay (P62993 whole entry, looked up): as above

Variant | effect of a mutation on the interaction (cbl_human CBL, P22681 [1]) | effect of a mutation on the interaction (grb2_human GRB2, P62993 [2]) | effect of a mutation on the interaction (cbl_human CBL, P22681 [3]) | effect of a mutation on the interaction (grb2_human GRB2, P62993 [4])
Y53F | disrupting interaction | decreasing interaction |  | 
Y55F |  |  | disrupting interaction | decreasing interaction
